Among the data in PMC2600743 (The Journal of Cell Biology, 2008) are KD and Kd values, retold here.

Experiment [1] has as its target ankyrin B (MBD-ankB) membrane-binding domain, 1–957 (UniProt Q01484). Nature of the experiment: SPR, GST-Nav1.2 captured on chip. As to conditions: reference: untreated immobilized fragment; sites S1112,S1123,S1124,S1126. For orientation: Surface plasmon resonance follows binding to a sensor surface in real time, without labels.
Experiment [2] has as its target ankyrin G (MBD-ankG) membrane-binding domain, 1–981 (UniProt O70511). Nature of the experiment: SPR, GST-Nav1.2 captured on chip. As to conditions: reference: untreated immobilized fragment; sites S1112,S1123,S1124,S1126.
In experiment [3] the target is MBD-ank (Table II; ankB or ankG not said) membrane-binding domain. The experiment in a line: SPR, GST-Nav1.2 captured on chip. As to conditions: reference: wild type, CK2-treated; sites S1124,S1126.
Experiment [4] deals with T1, MBD-ankB (membrane-binding domain of human 220-kD ankyrin B, amino acids 1–957) (human, UniProt Q01484-2 1-957).
T1 sequence (looked up): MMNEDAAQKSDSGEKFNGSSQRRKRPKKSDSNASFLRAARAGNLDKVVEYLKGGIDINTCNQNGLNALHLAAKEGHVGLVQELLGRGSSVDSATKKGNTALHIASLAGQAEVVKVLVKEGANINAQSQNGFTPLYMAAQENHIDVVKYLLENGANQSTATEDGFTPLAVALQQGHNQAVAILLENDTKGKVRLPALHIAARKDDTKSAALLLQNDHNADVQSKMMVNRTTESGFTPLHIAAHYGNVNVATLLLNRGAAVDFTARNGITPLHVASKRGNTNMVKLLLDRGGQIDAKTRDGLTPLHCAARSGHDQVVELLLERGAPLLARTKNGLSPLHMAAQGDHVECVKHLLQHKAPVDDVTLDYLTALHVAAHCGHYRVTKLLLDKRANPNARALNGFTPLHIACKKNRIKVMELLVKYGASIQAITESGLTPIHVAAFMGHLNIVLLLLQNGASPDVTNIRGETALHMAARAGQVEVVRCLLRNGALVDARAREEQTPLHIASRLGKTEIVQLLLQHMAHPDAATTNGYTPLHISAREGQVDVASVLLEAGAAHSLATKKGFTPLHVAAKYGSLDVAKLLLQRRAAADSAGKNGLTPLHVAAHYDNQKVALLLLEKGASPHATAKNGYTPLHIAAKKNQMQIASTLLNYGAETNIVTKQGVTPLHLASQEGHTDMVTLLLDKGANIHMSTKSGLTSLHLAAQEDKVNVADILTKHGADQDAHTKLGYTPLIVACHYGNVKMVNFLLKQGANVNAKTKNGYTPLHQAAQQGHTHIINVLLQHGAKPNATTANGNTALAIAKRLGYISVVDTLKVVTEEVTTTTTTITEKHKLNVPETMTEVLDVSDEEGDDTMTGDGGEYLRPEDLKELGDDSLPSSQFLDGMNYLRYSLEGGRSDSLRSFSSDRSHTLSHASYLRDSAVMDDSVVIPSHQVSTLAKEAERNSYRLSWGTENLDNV
The experiment in a line: SPR.

In experiment [5] the target is T2, MBD-ankG (membrane-binding domain of rat 270-kD ankyrin G, amino acids 1–981) (rat, UniProt O70511 1-981).
T2 sequence (looked up): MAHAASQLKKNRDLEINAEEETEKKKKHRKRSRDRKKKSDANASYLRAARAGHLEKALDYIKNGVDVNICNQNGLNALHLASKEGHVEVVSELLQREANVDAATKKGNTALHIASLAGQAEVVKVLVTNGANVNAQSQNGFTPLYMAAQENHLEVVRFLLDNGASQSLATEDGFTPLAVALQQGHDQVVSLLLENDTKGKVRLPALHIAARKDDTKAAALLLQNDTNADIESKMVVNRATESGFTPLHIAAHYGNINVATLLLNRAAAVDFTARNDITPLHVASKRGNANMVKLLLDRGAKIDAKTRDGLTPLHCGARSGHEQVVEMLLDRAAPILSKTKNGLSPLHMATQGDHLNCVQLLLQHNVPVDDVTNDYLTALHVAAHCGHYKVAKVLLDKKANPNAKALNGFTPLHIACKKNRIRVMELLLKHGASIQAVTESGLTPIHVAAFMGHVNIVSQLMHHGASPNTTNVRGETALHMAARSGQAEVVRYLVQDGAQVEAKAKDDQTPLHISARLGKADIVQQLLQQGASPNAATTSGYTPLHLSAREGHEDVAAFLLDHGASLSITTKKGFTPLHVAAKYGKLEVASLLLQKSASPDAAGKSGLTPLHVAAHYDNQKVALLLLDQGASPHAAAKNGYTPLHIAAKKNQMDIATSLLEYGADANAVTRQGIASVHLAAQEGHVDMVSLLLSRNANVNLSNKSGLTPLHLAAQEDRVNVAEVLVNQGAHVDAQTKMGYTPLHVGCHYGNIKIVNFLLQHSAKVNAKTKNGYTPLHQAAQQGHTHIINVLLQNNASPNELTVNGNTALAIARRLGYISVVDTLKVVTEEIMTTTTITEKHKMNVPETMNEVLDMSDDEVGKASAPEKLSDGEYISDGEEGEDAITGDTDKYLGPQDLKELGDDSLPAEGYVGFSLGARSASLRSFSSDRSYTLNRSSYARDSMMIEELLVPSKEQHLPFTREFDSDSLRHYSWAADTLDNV
Nature of the experiment: SPR.

Regarding “Nav1.2 1,080–1,203 (from UniProt P04775) phosphorylated on chip with CK2”, the KD entry was “stronger; reference 1.2 ± 0.4 × 10−6” in experiment [1] and “stronger; reference 1.7 ± 0.5 × 10−6” in experiment [2].

In the case of “Nav1.2 989–1,133 (from UniProt P04775) phosphorylated on chip with CK2”, the KD result in experiment [1] was “stronger; reference 1.3 ± 0.2 × 10−6”.

With “Nav1.2 1,080–1,203 (from UniProt P04775) S1124-26A, CK2-treated”, in experiment [3], the KD result is given as “weaker; reference 1.2 10−9”.

B1: GST-Nav1.2 989–1,133 (domain or fragment, UniProt P04775 989-1133, looked up)
chain: DNLAATDDDNEMNNLQIAVGRMQKGIDFVKRKIREFIQKAFVRKQKALDEIKPLEDLNNKKDSCISNHTTIEIGKDLNYLKDGNGTTSGIGSSVEKYVVDESDYMSFINNPSLTVTVPIALGESDFENLNTEEFSSESDMEESKE
The term Kd denotes the concentration at which binding is half-saturated. A higher Kd goes with a looser complex. B1: the Kd in experiment [4] was 1300 nM.

B2: GST-Nav1.2 1,080–1,203 (domain or fragment, UniProt P04775 1080-1203, looked up)
chain: SSVEKYVVDESDYMSFINNPSLTVTVPIALGESDFENLNTEEFSSESDMEESKEKLNATSSSEGSTVDIGAPAEGEQPEAEPEESLEPEACFTEDCVRKFKCCQISIEEGKGKLWWNLRKTCYK
Consider B2, for which the Kd in experiment [4] came out at 1200 nM; in experiment [5], 1700 nM.
